Assay results as given in patent publication US20240360208A1 (Hoffmann-La Roche, published 2024).

B1: 1A5//1G9-PGLALA (bispecific antibody, V domains shown)
VH 1: QEQLVESGGDLVKPEGSLTLTCTASGFSFSTSYWMCWVRQAPGKGLELIACISSSIGVTYYASWAEGRFTISKTSSTTVTLQMTSLTVADTATYFCARTTDDNWNVGFNLWGPGTLVTVSS
VL 1: AYDMTQTPASVEVGVGGTVTIKCQASQSIGNRYLSWYQQKPGQPPKLLIYGTSTLASGVSSRFKGSGSGTQFTLTISGVESADSATYYCQQGATISYLDNAFGGGTEVVVK
VH 2: QSLEESGGDLVKPGASLTLTCKASGIDFSLYSYMCWVRQAPGKGLEWIACVDAGASGSTYYASWAKGRFTISKTSSTTVTLQMTSLTAADTATYFCARGILYYTWPYPAGAIDAFDSWGPGTLVTVSS
VL 2: AYDMTQTPASVSEPVGGTVTIKCQASESISNYLSWYQQKPGQPPKLLIYKASTLASGVPSRFKGSGSGTEYTVTISGVQSDDAATYYCQQSYSSSNVFNTFGGGTEVVVK
notes: CrossMab, IgG1 with L234A, L235A, P329G, knobs-into-holes; crossed arm 1A5, non-crossed arm 1G9; also called CCL2-0046; P1AA3444
B2: 11K2//1G9-PGLALA (bispecific antibody, V domains shown)
VH 1: QVQLVQSGAEVKKPGSSVKVSCKASGLTISDTYMHWVRQAPGQGLEWMGRIDPANGNTKFDPKFQGRVTITADTSTSTAYMELSSLRSEDTAVYYCARGVFGFFDYWGQGTTVTVSS
VL 1: DIQMTQSPSSLSASVGDRVTITCKATEDIYNRLAWYQQKPGKAPKLLISGATSLETGVPSRFSGSGSGTDYTLTISSLQPEDFATYYCQQFWSAPYTFGGGTKVEIK
VH 2: B1 VH 2
VL 2: B1 VL 2
notes: CrossMab, IgG1 with L234A, L235A, P329G, knobs-into-holes; crossed arm humanized 11K2, non-crossed arm 1G9; also called CCL2-0043; P1AA3463
B3: 11K2//1G9-WT IgG1 (bispecific antibody, V domains shown)
VH 1: B2 VH 1
VL 1: B2 VL 1
VH 2: B1 VH 2
VL 2: B1 VL 2
notes: CrossMab, wild type IgG1 with knobs-into-holes; crossed arm humanized 11K2, non-crossed arm 1G9; also called CCL2-0049; P1AA3461
B4: 1A5//1G9-WT IgG1 (bispecific antibody, V domains shown)
VH 1: B1 VH 1
VL 1: B1 VL 1
VH 2: B1 VH 2
VL 2: B1 VL 2
notes: CrossMab, wild type IgG1 with knobs-into-holes; crossed arm 1A5, non-crossed arm 1G9; also called CCL2-0052; P1AA3446
B5: ABN912//11K2-WT IgG1 (bispecific antibody, V domains shown)
VH 1: B2 VH 1
VL 1: B2 VL 1
VH 2: EVQLVQSGGGLVQPGGSLRLSCAASGFTFSHYWMSWVRQAPGKGLEWLANIEQDGSEKYYVDSVKGRFTISRDNAKNSLYLQMNSLRAEDTAVYFCARDLEGLHGDGYFDLWGRGTLVTVSS
VL 2: AIQLTQSPSSLSASVGDRVILTCRASQGVSSALAWYQQKPGKAPKLLIYDASSLESGVPSRFSGSGSGPDFTLTISSLQPEDFATYFCQQFNSYPLTFGGGTKVEIK
notes: CrossMab, wild type IgG1 with knobs-into-holes; crossed arm humanized 11K2, non-crossed arm ABN912; also called CCL2-0047; P1AA3447
B6: ABN912//11K2-PGLALA (bispecific antibody, V domains shown)
VH 1: B2 VH 1
VL 1: B2 VL 1
VH 2: B5 VH 2
VL 2: B5 VL 2
notes: CrossMab, IgG1 with L234A, L235A, P329G, knobs-into-holes; VH/VL-crossed arm humanized 11K2, non-crossed arm ABN912; also called CCL2-0041; P1AA3411
B7: 1A5//2F6-WT IgG1 (bispecific antibody, V domains shown)
VH 1: B1 VH 1
VL 1: B1 VL 1
VH 2: QSLEESGGGLVQPEGSLTLTCTASGFSFNNNYYMCWVRQAPGKGLEWIGCISTDDSNTHYASWAQGRFTISKASSTALTLQVAGLTVADMATYFCARDAHFTSYGYGFDLWGPGTLVTVSS
VL 2: DIVMTQTPASVSAAVGGTVSINCRASEDIENLVAWYQQKPGQPPKLLIYQASKLASGVPSRFKGSGSGAEFTLTIGDLESADAATYYCQGDYGSGWIMYSFGGGTDLVVK
notes: CrossMab, wild type IgG1 with knobs-into-holes; crossed arm 1A5, non-crossed arm 2F6; also called CCL2-0058; P1AA3427
B8: 11K2//2F6-WT IgG1 (bispecific antibody, V domains shown)
VH 1: B2 VH 1
VL 1: B2 VL 1
VH 2: B7 VH 2
VL 2: B7 VL 2
notes: CrossMab, wild type IgG1 with knobs-into-holes; crossed arm humanized 11K2, non-crossed arm 2F6; also called CCL2-0056; P1AA3392
B9: 1A5//2F6-PGLALA (bispecific antibody, V domains shown)
VH 1: B1 VH 1
VL 1: B1 VL 1
VH 2: B7 VH 2
VL 2: B7 VL 2
notes: CrossMab, IgG1 with L234A, L235A, P329G, knobs-into-holes; crossed arm 1A5, non-crossed arm 2F6; also called CCL2-0055; P1AA3402
B10: 11K2//2F6-PGLALA (bispecific antibody, V domains shown)
VH 1: B2 VH 1
VL 1: B2 VL 1
VH 2: B7 VH 2
VL 2: B7 VL 2
notes: CrossMab, IgG1 with L234A, L235A, P329G, knobs-into-holes; crossed arm humanized 11K2, non-crossed arm 2F6; also called CCL2-0053; P1AA3450
B11: 1A4 (antibody, V domains shown)
VH: QSLEESGGDLVKPGASLTLTCTASELDFYWICWVRQAPGKGLEWIACIGAGSSGSTYYASWAKGRFTVSKTSSTTVTLQMTSLTAADTATYFCARTGTEFTYYSLWGPGTLVTVSS
VL: ALVMTQTPSSVSAAVGGTVTINCQASQSVYNNNMAWYQQKPGQPPKLLIYTASSLASGVPSHFRGSGSGTQFTLTISDLESDDAATYYCAGYKSYSNDEYGFGGGTEVVVK
notes: which format stood in each assay is not always stated; also called CCL2-0008
B12: murine 11K2 (antibody, V domains shown)
VH: EVQLQQSGAELVKAGASVKLSCPASGLNIKDTYMHWVKQRPEQGLEWIGRIDPANGNTKFDPKFQGKATITADTSSNTAYLQLSSLTSEDTAVYYCARGVFGFFDYWGQGTTLTVSS
VL: DIQMTQSSSSFSVSLGDRVTITCKATEDIYNRLAWYQQKPGSAPRLLISGATSLETGVPSRFSGSGSGKDYTLSITSLQTEDVATYYCQQFWSAPYTFGGGTKLEIK
notes: also called 11K2m; X-0048
B13: 2F6 (antibody, IgG1, V domains shown)
VH: B7 VH 2
VL: B7 VL 2
notes: also called CCL2-0014

Molecular target: T1, human CCL2 (MCP1) - wild type (wt) (human, UniProt P13500 24-99)
T1 construct: Made in-house or bought (R&D Systems 279-MC), depending on the assay; can form dimers; also called wt human CCL2; WT human CCL2
Experiment: SPR, C1 chip, anti-human Fc capture, 25 C, pH 7.4, Langmuir 1:1
Procedure: The sample and system buffer was PBS-T (10 mM phosphate buffered saline including 0.05% Tween20) pH 7.4. The flow cell was set to 25° C.—and the sample block set to 12° C.—and primed with running buffer twice. The bispecific antibody was captured by injecting a 2 μg/ml solution for 60 see at a flow rate of 10 μl/min. Association was measured by injection of human CCL2 (wt) in various concentrations in solution for 150 see at a flow rate of 30 μl/min starting with 30 nM in 1:10 dilutions. The dissociation phase was monitored for up to 1200 sec and triggered by switching from the sample solution to running buffer. […] Bulk refractive index differences were corrected by subtracting the response obtained from a goat anti human IgG Fc surface. Blank injections are also subtracted (=double referencing). For calculation of kinetic parameters, the Langmuir 1:1 model was used.

Question: Does B1 bind?
Answer: Result: binds

Question: Does B2 bind?
Answer: Result: binds

Question: Does B3 bind?
Answer: Result: binds

Question: Does B4 bind?
Answer: Result: binds

Question: Does B5 bind?
Answer: Result: binds

Question: Does B6 bind?
Answer: Result: binds

Question: Does B7 bind?
Answer: Result: binds

Question: Does B8 bind?
Answer: Result: binds

Question: Does B9 bind?
Answer: Result: binds

Question: Does B10 bind?
Answer: Result: binds

Molecular target: T1, human CCL2 (MCP1) - wild type (wt)
Experiment: cell-based or functional assay

Question: For B11, which “THP1 chemotaxis [fold change compared to IgG control]” value is on record?
Answer: The value was 4.5 fold.

Question: Which “THP1 chemotaxis [fold change compared to IgG control]” value does the source give for B12 here?
Answer: Its value is 6.9 fold.

Question: Which “THP1 chemotaxis [fold change compared to IgG control]” value does the source give for B13 here?
Answer: The value was 6.7 fold.

Molecular target: T2, human CCL2 (MCP1) - P8A variant (human, UniProt P13500 24-99)
T2 construct: In-house point mutant that cannot dimerise; also called monomeric human CCL2; monomeric CCL2
Experiment: SPR T200, 37 C, antibody captured, 1:1 model
Procedure: (§1) Antibody clone supernatants were diluted 1:2 in system buffer and were captured for 1 min at 5 μl/min. […] Analyte kinetics were performed at 30 μl/min. As analyte in solution wt human CCL2 or monomeric CCL2 P8A variant CCL2 were used. Analytes were injected at 90 nM highest concentration. The analyte contact time was 3 min and the dissociation time was 10 min. The Biaevaluation software V.3.0 was used according to the instructions of the manufacturer GEHC. A 1:1 binding model with RMAX local was applied to apparently estimate kinetic rates.

Question: Which results are given for B11?
Answer: Kd: 0.059 nM; T1/2: 2.9 h

Question: Which results are given for B12?
Answer: Kd: 0.011 nM; T1/2: 8.63 h

Question: B13 was tested. Which Kd did it give?
Answer: Its Kd is 0.091 nM.

Question: What about the “T1/2” value of the same binder?
Answer: Its value is 0.783 h.

Molecular target: T1, human CCL2 (MCP1) - wild type (wt)
Experiment: SPR T200, 37 C, antibody captured, 1:1 model
Procedure: as §1

Question: Which Kd does the source give for B11 here?
Answer: The Kd was 0.073 nM.

Question: What about the “T1/2” value of the same binder?
Answer: Its value is 1.67 h.

Question: Which results are given for B12?
Answer: Kd: 0.35 nM; T1/2: 0.317 h

Question: Which results are given for B13?
Answer: Kd: 0.059 nM; T1/2: 0.867 h
